What all share (details): protein: recombinant; tags: His-tag (Ni-NTA purified); copies: 1;1;1;1
In data set [1] the target is T1, NELF complex WT (UniProt Q9H3P2;Q8WX92;Q8IXH7;P18615 1-528;1-628;1-590;1-380). The data set can be described thus: EMSA (NELF release from PEC); DSIF also released at high RNA; 20 mM Na-HEPES pH 7.4, 100 mM NaCl, 25 mM KCl, 3 mM MgCl2, 2 mM DTT; assembly 30 °C, eRNA incubation 15-20 min at room temperature; 3.5% native PAGE 0.5x TBE at 4 °C; PEC about 0.1 µM NELF 0.15 µM. On the technique in general: In EMSA bound probe runs differently from free probe, usually more slowly.
T1 sequence (Q9H3P2 whole entry, chain 1 of 4): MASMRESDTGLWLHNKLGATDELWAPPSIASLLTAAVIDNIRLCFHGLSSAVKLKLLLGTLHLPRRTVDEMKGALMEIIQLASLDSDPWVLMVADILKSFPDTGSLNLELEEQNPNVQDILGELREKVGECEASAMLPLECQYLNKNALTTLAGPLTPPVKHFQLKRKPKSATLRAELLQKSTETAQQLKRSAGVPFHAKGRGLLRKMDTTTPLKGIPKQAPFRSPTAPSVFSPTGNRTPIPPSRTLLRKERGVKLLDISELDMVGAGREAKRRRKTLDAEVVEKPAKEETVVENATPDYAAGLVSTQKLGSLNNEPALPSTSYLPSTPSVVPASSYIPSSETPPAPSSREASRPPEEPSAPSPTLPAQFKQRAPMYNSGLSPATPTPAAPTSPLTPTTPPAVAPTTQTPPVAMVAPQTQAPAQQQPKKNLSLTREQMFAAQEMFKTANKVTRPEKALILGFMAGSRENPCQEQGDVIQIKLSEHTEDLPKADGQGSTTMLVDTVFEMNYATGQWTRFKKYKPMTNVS
T1 sequence (Q8WX92 other isoform, or with tags, fused parts or gaps, chain 2 of 4): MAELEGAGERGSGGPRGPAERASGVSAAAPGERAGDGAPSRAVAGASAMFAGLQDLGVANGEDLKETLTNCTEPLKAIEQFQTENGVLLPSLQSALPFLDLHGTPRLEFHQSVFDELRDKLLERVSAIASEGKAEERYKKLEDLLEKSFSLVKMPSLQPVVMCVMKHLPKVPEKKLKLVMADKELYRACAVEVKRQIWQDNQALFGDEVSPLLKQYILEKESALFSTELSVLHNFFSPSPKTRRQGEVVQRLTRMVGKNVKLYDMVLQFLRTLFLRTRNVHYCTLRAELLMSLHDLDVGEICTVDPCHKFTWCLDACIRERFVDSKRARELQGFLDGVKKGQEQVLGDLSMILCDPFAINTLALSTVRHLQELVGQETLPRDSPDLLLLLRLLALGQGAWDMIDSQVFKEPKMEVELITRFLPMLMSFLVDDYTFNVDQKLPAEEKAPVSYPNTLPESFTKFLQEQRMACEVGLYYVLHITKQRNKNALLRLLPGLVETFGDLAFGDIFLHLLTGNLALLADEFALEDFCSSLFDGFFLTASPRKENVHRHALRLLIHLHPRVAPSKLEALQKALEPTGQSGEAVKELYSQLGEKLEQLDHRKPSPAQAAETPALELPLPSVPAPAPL
T1 sequence (Q8IXH7 whole entry, chain 3 of 4): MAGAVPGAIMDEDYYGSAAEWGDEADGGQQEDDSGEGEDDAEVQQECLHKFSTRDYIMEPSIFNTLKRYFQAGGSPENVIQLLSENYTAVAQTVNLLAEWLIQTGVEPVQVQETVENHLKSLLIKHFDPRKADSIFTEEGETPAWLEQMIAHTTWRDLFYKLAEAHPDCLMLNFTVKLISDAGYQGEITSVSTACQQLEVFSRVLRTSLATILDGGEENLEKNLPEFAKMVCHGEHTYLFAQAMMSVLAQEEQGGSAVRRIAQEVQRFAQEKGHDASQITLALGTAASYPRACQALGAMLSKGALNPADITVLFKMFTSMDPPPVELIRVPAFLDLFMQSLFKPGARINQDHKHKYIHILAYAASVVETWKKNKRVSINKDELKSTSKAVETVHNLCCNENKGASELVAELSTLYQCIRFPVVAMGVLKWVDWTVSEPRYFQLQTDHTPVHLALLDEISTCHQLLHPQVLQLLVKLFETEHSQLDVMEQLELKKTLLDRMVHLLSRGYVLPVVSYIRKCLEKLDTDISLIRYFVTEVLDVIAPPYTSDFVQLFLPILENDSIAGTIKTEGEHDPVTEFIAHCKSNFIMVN
T1 sequence (P18615 whole entry, chain 4 of 4): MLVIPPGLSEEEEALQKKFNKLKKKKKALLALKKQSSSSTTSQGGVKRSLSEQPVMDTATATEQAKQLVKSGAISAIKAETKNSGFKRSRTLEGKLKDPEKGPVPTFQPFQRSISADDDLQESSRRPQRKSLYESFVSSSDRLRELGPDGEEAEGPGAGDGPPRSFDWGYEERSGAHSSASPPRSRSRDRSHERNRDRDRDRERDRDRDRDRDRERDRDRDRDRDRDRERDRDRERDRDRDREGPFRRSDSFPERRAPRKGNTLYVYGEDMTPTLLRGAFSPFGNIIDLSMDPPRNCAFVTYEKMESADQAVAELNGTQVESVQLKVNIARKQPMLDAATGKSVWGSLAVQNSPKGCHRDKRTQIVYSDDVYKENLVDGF

The target of data set [2] is T1, NELF complex WT. In words: EMSA (NELF release from PEC); 20 mM Na-HEPES pH 7.4, 100 mM NaCl, 25 mM KCl, 3 mM MgCl2, 2 mM DTT; assembly 30 °C, eRNA incubation 15-20 min at room temperature; 3.5% native PAGE 0.5x TBE at 4 °C; PEC about 0.1 µM NELF 0.15 µM.
For data set [3], the target named is T1, NELF complex WT. The data set can be described thus: EMSA (NELF release from PEC); up to 2.4 µM; 20 mM Na-HEPES pH 7.4, 100 mM NaCl, 25 mM KCl, 3 mM MgCl2, 2 mM DTT; assembly 30 °C, eRNA incubation 15-20 min at room temperature; 3.5% native PAGE 0.5x TBE at 4 °C; PEC about 0.1 µM NELF 0.15 µM.
Data set [4] concerns the target T1, NELF complex WT. The data set can be described thus: EMSA (NELF release from PEC); release at about equimolar eRNA; 20 mM Na-HEPES pH 7.4, 100 mM NaCl, 25 mM KCl, 3 mM MgCl2, 2 mM DTT; assembly 30 °C, eRNA incubation 15-20 min at room temperature; 3.5% native PAGE 0.5x TBE at 4 °C; PEC about 0.1 µM NELF 0.15 µM.
Data set [5] concerns the target T1, NELF complex WT. In words: EMSA (NELF release from PEC); apparent Kd; NELF in PEC on N1; 20 mM Na-HEPES pH 7.4, 100 mM NaCl, 25 mM KCl, 3 mM MgCl2, 2 mM DTT; assembly 30 °C, eRNA incubation 15-20 min at room temperature; 3.5% native PAGE 0.5x TBE at 4 °C; PEC about 0.1 µM NELF 0.15 µM.
The target of data set [6] is T1, NELF complex WT. In words: EMSA (NELF release from PEC); 18-fold molar excess; 20 mM Na-HEPES pH 7.4, 100 mM NaCl, 25 mM KCl, 3 mM MgCl2, 2 mM DTT; assembly 30 °C, eRNA incubation 15-20 min at room temperature; 3.5% native PAGE 0.5x TBE at 4 °C; PEC about 0.1 µM NELF 0.15 µM.
Data set [7] addresses T1, NELF complex WT. The data set can be described thus: EMSA (NELF release from PEC); no DSIF release at high RNA; 20 mM Na-HEPES pH 7.4, 100 mM NaCl, 25 mM KCl, 3 mM MgCl2, 2 mM DTT; assembly 30 °C, eRNA incubation 15-20 min at room temperature; 3.5% native PAGE 0.5x TBE at 4 °C; PEC about 0.1 µM NELF 0.15 µM.
Data set [8] concerns the target T1, NELF complex WT. The data set can be described thus: size-exclusion chromatography; UV crosslinking-MS (365 nm); isolated NELF; 20 mM Na-HEPES pH 7.4, 100 mM NaCl, 25 mM KCl, 3 mM MgCl2, 2 mM DTT; assembly 30 °C, eRNA incubation 15-20 min at room temperature; 3.5% native PAGE 0.5x TBE at 4 °C; PEC about 0.1 µM NELF 0.15 µM.

B1: poly(GU)40, 80 nt (ssRNA)
RNA: GUGUGUGUGUGUGUGUGUGUGUGUGUGUGUGUGUGUGUGUGUGUGUGUGUGUGUGUGUGUGUGUGUGUGUGUGUGUGUGU
Take B1: the binding result with NELF complex WT [1] is “binds”.

B2: Arc eRNA 96-200 (structured_RNA)
RNA: CCAGCUGGCAGUAGCCCCCCCAACCCCACCCCUGAUGGAGAACUGCUCCUGUAUGAUCCAGCCCAGUGGGCGCACAGGGAGUUGGUAGGUGGGCACUCAGACUGG
Turning to B2, the binding result with NELF complex WT [2] is reported as “binds”.

B3: poly(U) (ssRNA)
RNA: UUUUUUUUUUUUUUUUUUUUUUUUUUUUUUUUUUUUUUUUUUUUUUUUUUUUUUUUUUUUUUUUUUUUUUUUUUUUUUUU
B3: the binding result with NELF complex WT [3] is reported as “no binding”.

B4: poly(CA) (ssRNA)
RNA: CACACACACACACACACACACACACACACACACACACACACACACACACACACACACACACACACACACACACACACACACACACACACACACACA
With B4, the binding result with NELF complex WT [3] was “no binding”.

B5: Nr4a1-(b) eRNA 1-200 (structured_RNA)
RNA: AGUAGGGGCAUGGCUCGCCCGAGGCUCGGUGCUGCCCCGCCGCCCGCCGCGUUCCUUCCGGCUUGGUGUUCCGGUGGCGGGACCAGGGAAGGGAAGCUCGGGCCAAAUCCGGUCUCGGGCGAGGUGACAGAAAUUUGGAAUCUGACACCGGAGGAUGGCUGAGCUCCGGCUCCUCUGGGAGUGCAAUUACGGACUUCGCA
For the molecule B5, in the data set with NELF complex WT [4], the binding result was “binds”.

B6: Nr4a1-(b) eRNA 1-100 (structured_RNA)
RNA: AGUAGGGGCAUGGCUCGCCCGAGGCUCGGUGCUGCCCCGCCGCCCGCCGCGUUCCUUCCGGCUUGGUGUUCCGGUGGCGGGACCAGGGAAGGGAAGCUCG
For the molecule B6, the Kd with NELF complex WT [5] came to 2020 nM.

B7: Arc eRNA 1-50 (structured_RNA)
RNA: AAAACACAGCCGCCAGGGUGGGGGUGGCAGCCUUGAACGCCACCCUCUAA
For the molecule B7, the binding result with NELF complex WT [6] is recorded as “no binding”.

B8: poly(G2A6), 96 nt (ssRNA)
RNA: GGAAAAAAGGAAAAAAGGAAAAAAGGAAAAAAGGAAAAAAGGAAAAAAGGAAAAAAGGAAAAAAGGAAAAAAGGAAAAAAGGAAAAAAGGAAAAAA
For the molecule B8, the binding result in the data set with NELF complex WT [7] is “binds”.

B9: Nr4a1-(a) eRNA 1-50 (ssRNA)
RNA: GCGGUGAGAGUGAUUUUGUAACUCUAAAGUUACAGAGGGUUUUGUUGUGU
On to B9, for which the Kd with NELF complex WT [5] stood at 9700 nM.

B10: poly(CU) (ssRNA)
RNA: CUCUCUCUCUCUCUCUCUCUCUCUCUCUCUCUCUCUCUCUCUCUCUCUCUCUCUCUCUCUCUCUCUCUCUCUCUCUCUCU
In the case of B10, the binding result in the data set with NELF complex WT [3] is reported as “no binding”.

B11: poly(UA) (ssRNA)
RNA: UAUAUAUAUAUAUAUAUAUAUAUAUAUAUAUAUAUAUAUAUAUAUAUAUAUAUAUAUAUAUAUAUAUAUAUAUAUAUAUAUAUAUAUAUAUAUAUA
For B11, the binding result in the data set with NELF complex WT [3] was “no binding”.

B12: Nr4a1-(b) eRNA 1-50 (structured_RNA)
RNA: AGUAGGGGCAUGGCUCGCCCGAGGCUCGGUGCUGCCCCGCCGCCCGCCGC
For the molecule B12, the binding result with NELF complex WT [6] is on record as “no binding”.

B13: poly(G2A), 96 nt (ssRNA)
RNA: GGAGGAGGAGGAGGAGGAGGAGGAGGAGGAGGAGGAGGAGGAGGAGGAGGAGGAGGAGGAGGAGGAGGAGGAGGAGGAGGAGGAGGAGGAGGAGGA
As to B13, the binding result with NELF complex WT [2] is on record as “binds”.

B14: Nr4a1-(a) eRNA 1-200 (structured_RNA)
RNA: GCGGUGAGAGUGAUUUUGUAACUCUAAAGUUACAGAGGGUUUUGUUGUGUUUUUAAUCAAGAGCCCUGGUUUUGAUUUGUGGGUAAUCUUUCUUUAAACCUCGCCCAUUUCCGGCCUGGUGACCUGGGCCACUUUCUCAUGUUGACCCAGAUGAUCCUCAGUAGCAAGAACAAAAGGACAACAGAUGUGGAAACACUCAA
Regarding B14, the binding result in the data set with NELF complex WT [4] was “binds”.

B15: Nr4a1-(a) eRNA 1-200, 4SU (structured_RNA)
RNA: B14 RNA
modifications: 4-thiouridine, <60% of U
Regarding B15, in the data set with NELF complex WT [8], the binding result is “binds”.

B16: poly(GA)48, 96 nt (ssRNA)
RNA: GAGAGAGAGAGAGAGAGAGAGAGAGAGAGAGAGAGAGAGAGAGAGAGAGAGAGAGAGAGAGAGAGAGAGAGAGAGAGAGAGAGAGAGAGAGAGAGA
Take B16: the binding result in the data set with NELF complex WT [1] is recorded as “binds”.

B17: poly(A) (ssRNA)
RNA: AAAAAAAAAAAAAAAAAAAAAAAAAAAAAAAAAAAAAAAAAAAAAAAAAAAAAAAAAAAAAAAAAAAAAAAAAAAAAAAA
Take B17: the binding result with NELF complex WT [3] is “no binding”.

B18: Nr4a1-(a) eRNA 1-100 (structured_RNA)
RNA: GCGGUGAGAGUGAUUUUGUAACUCUAAAGUUACAGAGGGUUUUGUUGUGUUUUUAAUCAAGAGCCCUGGUUUUGAUUUGUGGGUAAUCUUUCUUUAAACC
With B18, in the data set with NELF complex WT [5], the Kd amounted to 140 nM.

B19: Nr4a1-(a) eRNA 1-100, 4SU (structured_RNA)
RNA: B18 RNA
modifications: 4-thiouridine, 40-80% of U
On to B19, for which, in the data set with NELF complex WT [8], the binding result is “binds”.

B20: Arc eRNA 1-200 (structured_RNA)
RNA: AAAACACAGCCGCCAGGGUGGGGGUGGCAGCCUUGAACGCCACCCUCUAACUGGCAUGGGCAUCUGAACUCUCAGCUCUGGGGGUGUCUCAUCGGCCAGCUGGCAGUAGCCCCCCCAACCCCACCCCUGAUGGAGAACUGCUCCUGUAUGAUCCAGCCCAGUGGGCGCACAGGGAGUUGGUAGGUGGGCACUCAGACUGG
As for B20, the binding result with NELF complex WT [4] is recorded as “binds”.

B21: Arc eRNA 1-200, 4SU (structured_RNA)
RNA: B20 RNA
modifications: 4-thiouridine, 40-80% of U
Consider B21, for which, in the data set with NELF complex WT [8], the binding result is listed as “binds”.
